Experimental findings from article PMC7260724, “ABAS1 from soybean is a 1R-subtype MYB transcriptional repressor that enhances ABA sensitivity” are described below.

Data set [1] has as its target T1, GST-GmABAS1 (Glycine max/soja (soybean; the cloned …, UniProt A0A3Q9B5G2 1-289).
T1 sequence: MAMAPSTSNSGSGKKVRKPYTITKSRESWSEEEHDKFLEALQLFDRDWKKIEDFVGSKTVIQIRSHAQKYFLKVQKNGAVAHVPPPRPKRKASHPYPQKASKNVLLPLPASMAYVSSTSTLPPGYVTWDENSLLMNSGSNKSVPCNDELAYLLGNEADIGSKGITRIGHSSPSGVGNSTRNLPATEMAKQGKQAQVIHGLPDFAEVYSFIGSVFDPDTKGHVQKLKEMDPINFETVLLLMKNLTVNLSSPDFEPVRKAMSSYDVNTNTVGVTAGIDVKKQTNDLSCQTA
The data set is described as follows: EMSA; 150 mM KCl, 10 mM Tris pH 7.4, 0.1 mM EDTA, 0.1 mM DTT, EDTA-free protease inhibitor; room temperature 20 min; 6% (non-competitive) or 10% (competitive) acrylamide gel in TBE. The conditions noted are these: protein: recombinant; tags: N-terminal GST (pGEX-4T-1); label: none (SYBR Green stain); blunt.

The target in data set [2] is T1, GST-GmABAS1. The data set is described as follows: EMSA; 72 pmol protein, 10 pmol probe; 150 mM KCl, 10 mM Tris pH 7.4, 0.1 mM EDTA, 0.1 mM DTT, EDTA-free protease inhibitor; room temperature 20 min; 6% (non-competitive) or 10% (competitive) acrylamide gel in TBE. The conditions noted are these: protein: recombinant; tags: N-terminal GST (pGEX-4T-1); blunt.

B1: Glyma.01G060300 native probe (dsDNA)
DNA 1: TGAAAAATCGTGTCAGTGTCGCCACGTG
DNA 2: CACGTGGCGACACTGACACGATTTTTCA
As to B1, in the data set with GST-GmABAS1 [1], the binding result is listed as “binds”.

B2: Glyma.01G060300 native probe, 6-FAM (dsDNA)
DNA 1: TGAAAAATCGTGTCAGTGTCGCCACGTG
DNA 2: CACGTGGCGACACTGACACGATTTTTCA
As to B2, the binding result with GST-GmABAS1 [2] is on record as “binds”.
